This is an account of results in patent US20240076389A1 (NATIONAL RESEARCH COUNCIL OF CANADA, published 2024).

The target in experiment [1] is T1, human AXL expressed on the cell surface of tumor cell lines (human, UniProt P30530 26-894).
T1 construct: whole, on cells; also called cell surface-expressed AXL; cell-based AXL
T1 sequence (looked up): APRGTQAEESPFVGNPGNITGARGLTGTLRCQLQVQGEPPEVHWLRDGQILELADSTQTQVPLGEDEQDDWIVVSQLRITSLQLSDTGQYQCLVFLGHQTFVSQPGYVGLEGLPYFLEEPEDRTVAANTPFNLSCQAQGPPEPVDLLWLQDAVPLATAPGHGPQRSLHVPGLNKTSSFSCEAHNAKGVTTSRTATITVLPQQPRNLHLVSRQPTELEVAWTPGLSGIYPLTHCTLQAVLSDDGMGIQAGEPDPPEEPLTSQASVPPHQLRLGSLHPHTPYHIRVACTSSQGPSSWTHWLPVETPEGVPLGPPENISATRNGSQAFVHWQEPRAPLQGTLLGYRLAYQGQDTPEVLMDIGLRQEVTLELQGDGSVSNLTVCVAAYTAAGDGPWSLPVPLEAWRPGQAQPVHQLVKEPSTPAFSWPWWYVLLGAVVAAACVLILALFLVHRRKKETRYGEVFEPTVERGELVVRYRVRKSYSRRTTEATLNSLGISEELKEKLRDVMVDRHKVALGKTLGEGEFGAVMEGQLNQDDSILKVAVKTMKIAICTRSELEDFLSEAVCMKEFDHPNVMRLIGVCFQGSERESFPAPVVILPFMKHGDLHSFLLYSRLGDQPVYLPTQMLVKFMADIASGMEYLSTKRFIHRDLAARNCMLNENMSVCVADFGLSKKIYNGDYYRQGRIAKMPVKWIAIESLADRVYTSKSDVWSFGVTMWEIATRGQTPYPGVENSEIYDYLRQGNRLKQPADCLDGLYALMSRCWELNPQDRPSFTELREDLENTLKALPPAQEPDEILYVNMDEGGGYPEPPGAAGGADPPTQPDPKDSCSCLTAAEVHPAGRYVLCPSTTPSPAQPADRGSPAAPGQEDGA
Nature of the experiment: FACS on NCI-H292 cells, apparent Kd. As for the experimental part: (§1) FACS binding assay. Adherent cells were dissociated with non-enzymatic Sigma Cell Dissociation Solution (Cat. No. C5789). Cells suspensions were added to polypropylene, V-bottom 96-well plates and incubated for 2 hours on ice with primary antibodies at concentrations ranging from 100 nM to 0.001 nM or at a single dose of 100 nM (for the non-specific control). After incubation and washes, cells were incubated with fluorescently labeled secondary antibody (Alexa Fluor® 488 anti-human IgG from Jackson Cat. No 709-546-098) for 1 hour on ice, then washed. Cell viability was determined using Fixable viability dye 450 (20 min on ice). Stained cells were fixed in 1% formaldehyde at 4° C. and stored at 4° C. until acquisition which was performed the next day.
(§2) Binding of recombinant chimeric Abs to three cell lines was assessed by FACS as described above. The apparent Bmax and Kd determination is shown below in Table 14.

The target of experiment [2] is T1, human AXL expressed on the cell surface …. Nature of the experiment: FACS on MDA-MB-231 luciferase cells, apparent Kd. As to the method:
as §1, §2

Experiment [3] has as its target T2, huMER-ECD displayed on yeast (human, UniProt Q12866 21-505).
T2 construct: extracellular domain
T2 sequence (looked up): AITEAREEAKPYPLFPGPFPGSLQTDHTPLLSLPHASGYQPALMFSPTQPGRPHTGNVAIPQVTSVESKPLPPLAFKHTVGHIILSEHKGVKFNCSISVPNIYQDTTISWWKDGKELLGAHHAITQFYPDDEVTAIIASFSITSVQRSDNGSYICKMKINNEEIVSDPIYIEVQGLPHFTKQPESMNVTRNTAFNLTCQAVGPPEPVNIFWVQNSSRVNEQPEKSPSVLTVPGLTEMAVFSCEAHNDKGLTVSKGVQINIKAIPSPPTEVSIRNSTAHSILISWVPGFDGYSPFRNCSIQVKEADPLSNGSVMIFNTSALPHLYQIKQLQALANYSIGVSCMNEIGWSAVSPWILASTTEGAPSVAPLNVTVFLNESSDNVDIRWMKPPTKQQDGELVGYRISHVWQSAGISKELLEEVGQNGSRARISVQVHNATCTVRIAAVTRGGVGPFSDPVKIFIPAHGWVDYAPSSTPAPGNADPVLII
Nature of the experiment: yeast surface display ELISA, non-denatured yeast, goat anti-human F(ab')2-HRP.

The target in experiment [4] is T3, recombinant human AXL extracellular domain, C-terminally His8-tagged (rhAXL-ECD) (human, UniProt P30530 26-451).
T3 construct: Made in CHO cells; also called (rh)AXL-ECD His8; human AXL ECD
T3 sequence: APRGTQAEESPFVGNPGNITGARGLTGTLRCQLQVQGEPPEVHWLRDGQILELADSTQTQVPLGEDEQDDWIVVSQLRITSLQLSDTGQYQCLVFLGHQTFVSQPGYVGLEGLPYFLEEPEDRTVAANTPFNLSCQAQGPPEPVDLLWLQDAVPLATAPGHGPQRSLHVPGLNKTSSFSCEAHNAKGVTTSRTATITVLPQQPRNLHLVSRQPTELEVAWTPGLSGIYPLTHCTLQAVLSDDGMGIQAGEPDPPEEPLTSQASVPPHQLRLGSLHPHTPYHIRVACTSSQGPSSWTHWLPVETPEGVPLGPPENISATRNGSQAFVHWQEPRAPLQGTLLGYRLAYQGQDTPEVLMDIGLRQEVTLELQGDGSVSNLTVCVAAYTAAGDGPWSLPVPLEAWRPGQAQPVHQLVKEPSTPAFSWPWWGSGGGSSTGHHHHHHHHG
Put plainly: ELISA on coated AXL ECD (100 ng/well), VHH-Fc, HRP-protein A. As for the experimental part:
ELISA. ELISAs against human, cyno and mouse AXL ECDs were conducted by immobilizing 100 ng of each protein in wells of Nunc MaxiSorp microplates overnight. Human AXL (aa 1-451) and cyno AXL (aa 1-449) were produced recombinantly as described in Example 10. Mouse AXL was purchased from Sino (cat. 51026-M08H). The next day, plates were blocked with 5% (w/v) dried milk in PBS. Murine mAbs (either hybridoma- or recombinantly-produced) or VHH-Fcs were diluted in PBS containing 1% BSA and 0.1% Tween-20 and added to wells for 2 hours at room temperature. Wells were washed 5× with PBS containing 0.1% Tween-20, then HRP-labeled protein A (diluted 1:1000 in PBS containing 1% BSA and 0.1% Tween™-20) was added to wells for 1 hour at room temperature. Wells were washed again 5× with PBS/0.1% Tween-20 and developed using TMB substrate. Absorbance was measured at 450 nm. As a positive control for mouse AXL binding, a commercial anti-mouse AXL mAb (clone 175128, R&D Systems MAB8541, rat IgG2A) was used and detected with donkey […] secondary antibody.

B1: hFC-F107-10G1 (antibody, human IgG1, kappa, V domains shown)
VH: EVNLVESGGGVVKPGASLKLSCEASGFTFSNYGMSWVRQTSDKRLEWVASISGGGGRTYYLDNVKGRFIISRENAKNTLYLQMSSLKSEDTALFYCARGARASYFAMDYWGQGSSVTVSS
VL: VIVMTQSHKFMSTSVGDRVSITCKASQDVTTAVAWYQQKPGQSPKLLIYWASTRHTGVPDRFTGSGSGTDYSLTISNVQTEDLAFYYCQQHFTTPLTFGAGTKLELKR
notes: Chimeric mAb, human IgG1 / human kappa constant regions; also called mAb F107-10G1
Regarding B1, the Kd in experiment [1] was found to be 70.8 pM; in experiment [2], 101 pM. Besides, the “yeast ELISA signal normalized to myc expression level” value in experiment [3] is -0.02.

B2: NRC-sdAb001-Fc (VHH-human IgG1 Fc fusion) (Fc fusion)
chain: QVKLEESGGGLVQAGGSLRLSCTASASISSFDIMGWYRQAPGKQRELVAAITTLDIANYRDSVKGRFTISRDNAKNTVYLQMDSLKPEDTARYHCAAFQSDQNYWGQGTQVTVSS
notes: VHH fused N-terminally to human IgG1 Fc, made in HEK293 cells; also called NRC-sdAb0001-Fc; NRC-sdAb001-hIgG1; not shown: human IgG1 Fc
Consider B2, for which the EC50 (commonly the midpoint of the concentration-response curve) in experiment [4] was 1000 pM.
